This note sets out measurements from publication PMC9593262 (iScience, 2022).

No end group written: not given here. *: point of attachment. Biotin = O=C1N[C@H]2[C@H](CS[C@H]2CCCCC(=O)*)N1

The target in test [1] is T1, Recombinant nucleolin protein (murine, residues 309–644) (mouse, UniProt P09405 309-644). Nature of the test: plate competition assay read by fluorescence of PE-labelled streptavidin.
Test [2] concerns the target T2, Recombinant mouse NRP-1 protein (mouse, UniProt P97333 22-856).
T2 sequence (looked up): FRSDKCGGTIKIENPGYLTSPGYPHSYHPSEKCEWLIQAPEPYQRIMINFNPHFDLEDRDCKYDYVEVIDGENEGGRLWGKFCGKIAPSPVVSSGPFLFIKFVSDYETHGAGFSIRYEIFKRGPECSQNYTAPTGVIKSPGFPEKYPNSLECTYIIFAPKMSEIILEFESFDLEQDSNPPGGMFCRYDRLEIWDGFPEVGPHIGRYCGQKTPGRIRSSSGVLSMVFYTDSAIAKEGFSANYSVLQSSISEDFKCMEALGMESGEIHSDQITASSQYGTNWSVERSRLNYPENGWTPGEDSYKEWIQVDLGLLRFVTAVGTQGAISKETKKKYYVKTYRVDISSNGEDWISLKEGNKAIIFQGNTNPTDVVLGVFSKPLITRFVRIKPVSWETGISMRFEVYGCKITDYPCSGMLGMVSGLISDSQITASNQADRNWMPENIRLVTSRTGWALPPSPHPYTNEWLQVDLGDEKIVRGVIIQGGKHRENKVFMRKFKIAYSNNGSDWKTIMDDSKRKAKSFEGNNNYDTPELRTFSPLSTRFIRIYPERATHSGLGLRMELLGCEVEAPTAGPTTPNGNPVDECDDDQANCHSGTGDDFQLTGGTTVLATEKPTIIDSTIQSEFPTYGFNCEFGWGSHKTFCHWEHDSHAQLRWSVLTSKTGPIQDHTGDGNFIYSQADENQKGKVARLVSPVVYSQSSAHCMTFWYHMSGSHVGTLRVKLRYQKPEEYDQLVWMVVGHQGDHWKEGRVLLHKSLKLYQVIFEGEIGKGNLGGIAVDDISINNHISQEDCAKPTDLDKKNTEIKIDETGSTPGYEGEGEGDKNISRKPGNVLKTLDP
Nature of the test: plate binding assay read by fluorescence of PE-labelled streptavidin.

Test [3] concerns the target T1, Recombinant nucleolin protein (murine, …). The test is described as above.

T1 sequence (P09405 309-644): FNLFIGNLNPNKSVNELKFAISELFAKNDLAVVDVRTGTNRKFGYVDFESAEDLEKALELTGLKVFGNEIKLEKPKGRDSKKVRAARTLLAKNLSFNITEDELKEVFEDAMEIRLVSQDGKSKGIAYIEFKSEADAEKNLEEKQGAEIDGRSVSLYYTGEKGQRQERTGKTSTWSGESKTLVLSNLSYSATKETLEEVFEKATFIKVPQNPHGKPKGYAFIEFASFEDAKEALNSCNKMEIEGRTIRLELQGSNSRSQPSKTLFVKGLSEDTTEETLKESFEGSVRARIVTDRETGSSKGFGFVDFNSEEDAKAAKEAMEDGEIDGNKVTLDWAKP

As to VSYKAIRVSYKAIRVSYKAIR [Dp1×3 (unlabelled)], the binding result in test [1] is given as “binds”.

In the case of Biotin-VSYKAIR [biotin-labeled DC-targeting peptide Dp1], the binding result in test [2] is “binds”.

Biotin-VSYKAIRVSYKAIRVSYKAIR [biotin-labeled Dp1×3]: the binding result in test [3] is reported as “binds”.
